Measurements taken from patent publication US20240287172A1 (SCIRHOM, published 2024).
Where a chain is given by its changes, count along the chain named.

Target: T1, human iRhom1, endogenously expressed (human, UniProt Q96CC6 1-855)
T1 construct: also called iRhom1 on RH-30 cells
T1 sequence: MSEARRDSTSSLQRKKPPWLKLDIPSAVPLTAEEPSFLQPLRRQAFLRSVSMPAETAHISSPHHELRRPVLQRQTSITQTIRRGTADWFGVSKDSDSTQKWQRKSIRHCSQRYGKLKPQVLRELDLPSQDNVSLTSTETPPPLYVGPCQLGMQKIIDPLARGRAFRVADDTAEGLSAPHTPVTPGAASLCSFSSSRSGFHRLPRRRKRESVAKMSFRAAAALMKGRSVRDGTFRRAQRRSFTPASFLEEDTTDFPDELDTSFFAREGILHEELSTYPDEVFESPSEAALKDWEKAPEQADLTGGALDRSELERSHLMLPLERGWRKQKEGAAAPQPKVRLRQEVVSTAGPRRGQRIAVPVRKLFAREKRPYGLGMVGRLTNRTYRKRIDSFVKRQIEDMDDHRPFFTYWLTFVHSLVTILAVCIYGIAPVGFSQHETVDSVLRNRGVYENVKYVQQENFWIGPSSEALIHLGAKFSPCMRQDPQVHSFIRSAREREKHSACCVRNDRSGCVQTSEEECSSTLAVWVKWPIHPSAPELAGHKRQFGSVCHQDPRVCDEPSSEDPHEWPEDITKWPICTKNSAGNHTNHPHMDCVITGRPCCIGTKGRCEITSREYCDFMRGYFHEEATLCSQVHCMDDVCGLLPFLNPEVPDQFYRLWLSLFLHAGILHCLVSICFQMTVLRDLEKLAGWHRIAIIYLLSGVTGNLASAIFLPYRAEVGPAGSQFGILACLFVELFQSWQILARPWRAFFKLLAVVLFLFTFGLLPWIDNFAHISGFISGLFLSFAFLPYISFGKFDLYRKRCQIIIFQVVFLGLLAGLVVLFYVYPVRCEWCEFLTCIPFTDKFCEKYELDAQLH
Experiment: FACS, RH-30 cells; via representative antibody 16
Procedure: In this study, binding specificity analyses of the hybridoma supernatant leading to the antibody 16 of the invention as a representative example of antibodies 3, 16, 22 and 42 of the invention as well as of the antibody 16 of the invention as a representative example of antibodies 16, 22 and 42 of the invention in cell lines endogenously expressing iRhom2 were performed. The studies were conducted on RPMI-8226 cells, a human B lymphocytic cell line endogenously expressing iRhom2 but being endogenously negative for iRhom1, on THP-1 cells, a human monocytic cell line endogenously expressing both iRhom2 and iRhom1 and on RH-30 cells, a human […] cell line endogenously negative for iRhom2 but endogenously expressing iRhom1.
In brief, human RPMI-8226 cells (Deutsche Sammlung von Mikroorganismen und Zellkulturen, Germany), THP-1 cells (American Type Culture Collection, USA) and RH-30 cells (Deutsche Sammlung von Mikroorganismen und Zellkulturen, Germany) were harvested with 10 mM EDTA in PBS, washed and resuspended in FACS buffer (PBS, 3% FBS, 0.05% sodium azide), and seeded in Nunc U-bottom 96-well plates (Thermo Fisher Scientific, USA) at approximately 2×10⁵ cells per well. […] Finally, cells were resuspended in 150 μl per well of FACS buffer and analyzed using a BD Accuri™ C6 Plus flow cytometer (Becton Dickinson, Germany).

B1: antibody 22 (antibody, V domains shown)
VH: QVTLKESGPGILQPSQTLSLTCSFSGFSLSTFGMGVGWIRQPSGKGLEWLAHIWWDDEKYYNSALKSRLTISKATSKNQVFLKIANVDTADTATYYCARISNYGSNYWYFNVWGTGTTVTVSS
VL: QVVLTQSPALMSASPGEKVTMTCSAGSSVSYMYWYQQKPGSSPRVLIYDTSNLASGVPARFTGSGSGTSYSLTISRMEAEDAATYYCQQWNSYPLTFGAGTKLELK
notes: mouse IgG, kappa light chain; also called clone #22; purified antibody 22
- binding result: no binding (tested: 3 µg/ml)

B2: antibody 42 (antibody, V domains shown)
VH: B1 VH with F24L, M34R, S63P, A74D, K83R, S101Q, N111D
VL: LIVLTQSPAIMSASPGEKVTMTCGATSRISYMFWYQQKPGSSPRVLIYDTSNLASGVPVRFSGSGSGTSYSLTISRVEAEDVATYYCQQWNSYPLTFGAGTKLELK
notes: mouse IgG, kappa light chain; also called clone #42; purified antibody 42
- binding result: no binding (tested: 3 µg/ml)
